According to patent US20090075881A1:
pKd: −log10 of the molar value.

Biological target: fibrinogen complex (FC) component of TISSEEL VH S/D
Experiment: SPR; FC coupled to sensor chip, PDGF-AB as analyte in PBS pH 7.4; KD = Koff/Kon by two methods

**Q.** With “recombinant human PDGF-AB (from UniProt P04085 87-211; P01127 82-190) (ligand)” as the substance, how does the pKd read?
**A.** 6.47
